According to the DeepSol protein solubility set:

Assay: soluble on expression in E. coli; label from the status in PepcDB or PDB records

Soluble on expression in E. coli, not soluble:
MSLNEPVMNKKHFADNNFEEFQRIIRAKLENFKDRIELIEELLSKYHPTRLKEYTKDGIIYSKQCEFYNFLVGMNEAPFICNRKDLYLKEKMHGGVKEVYFANKHGKILNDDLSEKYFSAIEISEYAPKSQSDLFDKINALDSEFIFMHAYSPKNSQVLKDKLAFTSRRIIISGGSKEQGMTLGCLSELVGNGDITLGSYGNSLVLFADSFEKMKQSVKECVSSLNAKGFLANAATFSMENYFFAKHCSFITLPFIFDVTSNNFADFIAMRAMSFDGKEDNNAWGNSVMTLKSEINSPFYLNFHMPTDEGHHHHHH, MYLSHFGFRVQPFSLTPNTEMFLGLVPHYEAIQTILAAVQMGEGVIKVTGEVGTGKTMVCRKLIEQIESQVELVYLPNPVLNGEQLQFAVARELGIDNDDPLRIVSLIQEHLIRVHSTGKKTVLIVDEAQALSPEALETLRLFGNLETEQDKLIQLVLFGQPELDERLSMHELRQFRQRITFSCGLRPLSVDEGVAYINNRLDKAGNGAHIFSIEQKKAIWRSAMGIPRLINQISHKALLAAFNDRCTLLKNHHVYAAMHDTFDARKPKFKTPVFWGWSQPLEHHHHHH, MGSDKIHHHHHHMGKTTRKVQITGGSTFIVSLPPEWVKRNGITKGSEISISDDGNDLVISSSNPDLPEVSKKIIIPPNYTGKPLQRLLTSSYISGFDTLSIVSKEKMGSELRDDIKRFSKVVMGIEIIEETSKSVVLQNVLNVKTFPLSKAIRRMSLNVGTMIEDTIKAIEDYDEELFQNVIERDDEVDRYQWYIYREVKNHCQYEDSNVFMLVLSRILERMADHTVNICIAMKDRKAVNGRMEMIDNLKFSLDVYNHAVESFYSKNFKVLDGIINQKSEINERKFKLLKILSYDVVLSSIAEEISRIGLYGTDIAELAMDLILSDKLEFSVQ, MGSDKIHHHHHHMRYPEGMALQNKFPILWDCFLQRINDALKATTQEELGRRLGVGKSAITKWRHGSTRGADLQDFLRYCDVLGIDFCGIINGTPTPTYSPSPFEIALTGVLDSFLSVHNLTHEKAASSLWPETANGAAKLGSILTAKEPLTPEVLMQLCLLMEEDPGKLLRLARERVQPEGEQISGNAKSA, MSLGPTRANPKAVKPFIEQKEKKMVLVVDWHTKTLAATMNGRRPQDEDAMVVHGPLKNFPNARLKAIFDGHGGYSVSRRCASVAYGYLGAMKNLSQESFRSACLQMDADMRADTLKGGSTGLMVIIEKVDDPESRDGIYFNVHAANVGDSRGLILHSDGTYTIMSKDHKPTAEVERERIKRAGGFLLRRLGVWRVDGRLALSRAFGDFALKDRLDMKPNEQKVVALPDVNVFKAKPGDIILMGCDELANTLKNIQWDGGTVCSRRPRGRRSRDNVSIMLTKLVKRPIRNTQVKRFDYSFTGERYVLPSEEGHHHHHH, MGHHHHHHSHMAIQVDKFNFESFPESPGEKGQFANPKQLEEERREARGLEIHSKLGICWRIPSLKRSGEASVEGLLNQLVLEHLQLAPLQWDVLVDGQPCDREAVAACQVGDPVRLEVRLTNRSPRSVGPFALTVVPFQDHQNGVHNYDLHDTVSFVGSSTFYLDAVQPSGQSACLGALLFLYTGDFFLHIRFHEDSTSKELPPSWFCLPSVHVCALEAQA, MNLPPDALHENVYAFALARDQVESYCNQCLTSMAELKKCSACRRLAYCSQECQRADWKLHKVECKAIKTHNEVANDSIRLVMRIAGKLSRNEDGEIEAYYIPGVARNFQNLEHHPSSYDADEESFVKEYFQFAIAPHPDRDLIKLIFQKVSINSFVVGNSTGNPIGVGLCIKLSAANHSCKPLTRVCYRNRTAMLVPVSSELPSTLEGACHSYIDELMPRDMRRDTLKKKYKFLCQCDGCLDEDRNARMEAWTCGICVKGWMRNKENGQCELCGWTMSKDHFELCRTAEEAGIAARSRLANDAIPLETKRNLCEKLLDLFQDTLHDHNVHRIPVLRCLYICSLAAQNITAAAKTGGTLLSIMLVYQNTTDPAILFQKYQLAQLFCAAGAKTQATKLLQEIEEPLEKIYTPDSMICRNVYCMILKARNLS, MVIRPVERSDVSALMQLASKTGGGLTSLPANEATLSARIERAIKTWQGELPKSEQGYVFVLEDSETGTVAGICAIEVAVGLNDPWYNYRVGTLVHASKELNVYNALPTLFLSNDHTGSSELCTLFLDPDWRKEGNGYLLSKSRFMFMAAFRDKFNDKVVAEMRGVIDEHGYSPFWQSLGKRFFSMDFSRADFLCGTGQKAFIAELMPKHPIYTHFLSQEAQDVIGQVHPQTAPARAVLEKEGFRYRNYIDIFDGGPTLECDIDRVRAIRKSRLVEVAEGQPAQGDFPACLVANENYHHFRVVLARTDPATERLILTAAQLDALKCHAGDRVRLVRLCAEEKTA, MGSDKIHHHHHHMISRTMQQQVNSSSIIRAMFEEGKRLSALYGADNVYDFSLGNPNVEPPAEVKQAIMDILNEENSTTVHGYMNNSGFEDVRGAIAASLNQRFATGFAADNILMTVGAAGGLNVIFKTLLNPEDEVLTFAPFFGEYRNYVQNYQGQLIVVSPNTKDFQPNLEELKEKISPRTKAVLINSPNNPTGVVYSAETIAALVDILRAKQEEYGTVIYLIGDEPYRELAYDQVEVPYLTKYYENTIVGYSYSKSLSLPGERIGYLVIPREAADYENLIAAANIANRILGFVNAPSLFQRVIAKCLDAQVNLDSYNRNRELLYNALVSYGYQCIKPEGAFYLFIKTPLENDLEFCTLAKSKNILIVPGTSFACPGYARIAYCVAYETIERALPGFEALINEVSWASA, YRENDPRLQLAFKLFLDGCTDKEVEQQTGINRRTFRRYRMKYGITNSLRHKND

Soluble on expression in E. coli, soluble:
MSLPWLHRETARSFGGAGSTAGYEQVTAYTLTGQLQSRHLNLPQLDCDYDWNDNGQLIRISGPQESREYRYSDTGRLTGVHTTAANLDIDIPYATDPAGNRLPDPELHPDSTLTAWPDNRIAEDAHYVYRYDEYGRLTEKTDRIPEGVIRMHDERTHHYHYDNQHRLVFYTRIQYGEPLVESRYLYDPLGRRTGKRVWRRERDLTGWMSLSRKPEVTWYGWDGDRLTTVQTGTTRIQTVYRPGSFTPLIRIETENGEREKAQRRSLAEKLQQEGSEDGHGVVFPAELVRMLDRLEEEIRADRVSSESRAWLAQCGLTVEQLEKQVEPEYTPARTLHLYHCDHRGLPLALISEDGNTAWSAEYDEWGNQLNEENPHHLHQPYRLPGQQHDEESGLYYNRHRYYDPLQGRYITPDPIGLRGGWNMYQYPLNPIQVIDPMGLDAIENMTSGGLIYAVSGVPGLIVANSITNSAYQFGYDMDAIVGGAHNGAADAMRYCYLMCRMTKTEGHHHHHH, MSLNGIGSYEYCGRRISMQDSILVGNNFFGDASSLFGIFDGHGGDYGSCFISKEIQKSLEKLRGRALTKEVFENEIISAIQNINTLMEQNNMTDGATSVIVASTKTHYLIANIGDSRAIIIRRTETSPIPMKDIDDETQQTLRPKSPSKLVLPKKTLKGKLGWSGAGSSKTTNQIEVNFDYIGGGRIEVEALTHDHKPSYQEDRQRIRESGNYISDQEKVNGYISVTRAIGDVKCKAFVSCIPEFSEVARRSSDCFVICACDGVWDVFSNEEIGNLVMANEQMNCTELAKLIVDIAYCRLSSDNISCIVFNCQDSEGHHHHHH, MGSDKIHHHHHHMNVINETANVLKLETGSVTSAKGFSAVGIHTGVKRKRKDLGAIVCEVPASSAAVYTLNKVQAAPLKVTQESIAVEGKLQAMIVNSGIANACTGKRGLDDAYTMRAVGAETFHIPEHYVAVTSTGVIGEFLPMDVITNGIRQLKPEATIEGAHAFNEAILTTDTVEKHTCYQTIVNGKTVTVGGVAKGSGMIHPNMA, MSLREAVLANLKKITDPVSGQDIVSAGIVRALNVEGDTVRFVIEIDPKLAERMEPVRAAAEKAAQMVEGVAKVSAMMTAHSDKAPPELKPRAKAAPQGPQPVAGVDRIVAVASGKGGVGKSTVSANLACALAAEGRRVGLLDADVYGPSQPRMLGVSGRPASPDGKTILPLRNHGVTMMSMGLMTNEGQAVVWRGPMLMGALQQMMNQVQWGGLDVLIVDLPPGTGDVQLTLSQKFAVDGAIIVSTPQDVALIDARKGIDMFRQLKTPILGMIENMSTHICSNCGHEEHVFGHGGVAAEAEKLGVPLLGEIPLHLDIRVAADGGAPIVVSKPDSPQAEAFRRIARDLIAKGQALEHHHHHH, MNYMPGTASLIEDIDKKHLVLLRDGRTLIGILRSIDQFANLVLHQTVERIHVGKKFGDIPRGIFVVRGENVVLLGEVDLDKECDQILQRVSIEEILEEQRTEQQAKQESERLKLQAVKERGLSIPKADTLDDF, MELYELAQAAGGGIDPDVFKILVDLLKLNVAPLAVFQMLKSMCAGQRLASEPQDPAAVSLPTSSVPETRGRDKGSAALGGVLALAERSNHEGSSQRMPRQPSATRLPKGGGPGKSPTQGST, SMIPEVQKPLHEQLWYHGAIPRAEVAELLVHSGDFLVRESQGKQEYVLSVLWDGLPRHFIIQSLDNLYRLEGEGFPSIPLLIDHLLSTQQPLTKKSGVVLHRAVPKDKWVLNHEDLVLGEQIGRGNFGEVFSGRLRADNTLVAVKSCRETLPPDLKAKFLQEARILKQYSHPNIVRLIGVCTQKQPIYIVMELVQGGDFLTFLRTEGARLRVKTLLQMVGDAAAGMEYLESKCCIHRDLAARNCLVTEKNVLKISDFGMSREEADGVYAASGGLRQVPVKWTAPEALNYGRYSSESDVWSFGILLWETFSLGASPYPNLSNQQTREFVEKGGRLPCPELCPDAVFRLMEQCWAYEPGQRPSFSTIYQELQSIRKRHR, MTNEEPLPKKVRLSETDFKVMARDELILRWKQYEAYVQALEGKYTDLNSNDVTGLRESEEKLKQQQQESARRENILVMRLATKEQEMQECTTQIQYLKQVQQPSVAQLRSTMVDPAINLFFLKMKGELEQTKDKLEQAQNELSAWKFTPDR, MGSSHHHHHHDYDIPTTENLYFQGHMKVKILVDSTADVPFSWMEKYDIDSIPLYVVWEDGRSEPDEREPEEIMNFYKRIREAGSVPKTSQPSVEDFKKRYLKYKEEDYDVVLVLTLSSKLSGTYNSAVLASKEVDIPVYVVDTLLASGAIPLPARVAREMLENGATIEEVLKKLDERMKNKDFKAIFYVSNFDYLVKGGRVSKFQGFVGNLLKIRVCLHIENGELIPYRKVRGDKKAIEALIEKLREDTPEGSKLRVIGVHADNEAGVVELLNTLRKSYEVVDEIISPMGKVITTHVGPGTVGFGIEVLERKR, LSNLPRVKHTLVPPPFAHAHEQVAASGPVINEFEMRIIEKEVQLDEDAYLQAMTFDGSIPGPLMIVHEGDYVELTLINPPENTMPHNIDFHAATGALGGGGLTLINPGEKVVLRFKATRAGAFVYHCAPGGPMIPWHVVSGMAGCIMVLPRDGLKDHEGKPVRYDTVYYIGESDHYIPKDEDGTYMRFSDPSEGYEDMVAVMDTLIPSHIVFNGAVGALTGEGALKAKVGDNVLFVHSQPNRDSRPALIGGHGDLVWETGKFHNAPERDLETWFIRGGTAGAALYKFLQPGVYAYVNHNLIEAVHKGATAHVLVEGEWDNDLMEQVVAPVGLTG, SNRKKLQKLTDTLTKNCKHFNKFEVNCLIKLFYDLVGGVERQGLVVGLDRNAFRNILHVTFGMTDDMIMDRVFRGFDKDNDGCVNVLEWIHGLSLFLRGSLEEKMKYCFEVFDLNGDGFISKEEMFHMLKNSLLKQPSEEDPDEGIKDLVEITLKKMDHDHDGKLSFADYELAVREETLLLEAFGPCLPDPKSQMEFEAQVFKDPNEFNDM
